Consider 4 molecules from PMC7129780 (Cytokine, 2019).

In general, Kd refers to a measure of binding affinity in units of concentration.

Substitutions are numbered along the chain they refer to. Names may count otherwise.

B1: IFNλ4 variant M1 (L28N) (ligand, human, UniProt K9M1U5 22-179, looked up)
chain: AAPRRCNLSHYRSLEPRTLAAAKALRDRYEEEALSWGQRNCSFRPRRDPPRPSSCARLRHVARGIADAQAVLSGLHRSELLPGAGPILELLAAAGRDVAACLELARPGSSRKVPGAQKRRHKPRRADSPRCRKASVVFNLLRLLTWELRLAAHSGPCL
modifications: biotinylated (site not stated) for BLI; N-glycan at N61; mutated L28N not glycosylated
B2: IFNλ4 variant M3 (P73N) (ligand, human, UniProt K9M1U5 22-179, looked up)
chain: B1 chain with N7L, P52N
modifications: biotinylated (site not stated) for BLI; N-glycans at N61 and at mutated P73N
B3: IFNλ4 WT purified from E. coli (eIFNλ4) (ligand, human, UniProt K9M1U5 22-179, looked up)
chain: B1 chain with N7L
modifications: biotinylated (site not stated) for BLI
B4: IFNλ4 variant M7 (L28N + P73N) (ligand, human, UniProt K9M1U5 22-179, looked up)
chain: B1 chain with P52N
modifications: biotinylated (site not stated) for BLI; N-glycans at N61 and at mutated P73N; mutated L28N not glycosylated

One experiment deals with T1, IL10Rβ (UniProt Q08334 20-220).
T1 sequence (looked up): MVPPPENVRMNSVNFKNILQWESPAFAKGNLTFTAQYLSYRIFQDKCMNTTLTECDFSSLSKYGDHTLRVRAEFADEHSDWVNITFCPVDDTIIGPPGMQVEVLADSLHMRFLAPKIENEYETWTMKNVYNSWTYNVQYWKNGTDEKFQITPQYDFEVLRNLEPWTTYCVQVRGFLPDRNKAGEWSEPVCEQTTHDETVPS
Nature of the experiment: BLI. In general terms: Biolayer interferometry detects binding as a change in optical thickness at a sensor tip.
With B1, binding was characterised by a dissociation constant (Kd) of 49 nM.

For the molecule B2, binding was characterised by a dissociation constant (Kd) of 51 nM.

Molecule B3 gave a dissociation constant (Kd) of 71 nM.

In turn, B4 registered a Kd of 49 nM. The Kd values of the last two molecules are within 1.5-fold of each other.

For the next experiment, the target named is T2, IFNλR1 (UniProt Q8IU57 21-228).
T2 sequence (looked up): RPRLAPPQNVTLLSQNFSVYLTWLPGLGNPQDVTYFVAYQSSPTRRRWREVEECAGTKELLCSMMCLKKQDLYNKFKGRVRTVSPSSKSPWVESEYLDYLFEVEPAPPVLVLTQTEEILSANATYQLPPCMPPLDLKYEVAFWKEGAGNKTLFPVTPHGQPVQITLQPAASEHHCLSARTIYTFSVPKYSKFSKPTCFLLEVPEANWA
Nature of the experiment: BLI.
For B1, the dissociation constant (Kd) turned out to be 14 nM. That is a double-digit nanomolar value.

In turn, B2 had a Kd of 22 nM. Compared with the last molecule, the Kd is about 1.6-fold higher.

Take B3: the Kd was 19 nM.

For the molecule B4, the dissociation constant (Kd) was 17 nM.
